A word on the stoichiometry N: it is a count of units in the complex or per binding partner.

Here are results for one substance from PMC6005192.

This assay deals with bacteriophage λ holin S105, allele S105τ94 (internal G2H6G2 tag) (bacteriophage λ). Briefly: cryo-EM structure.

Consider “bacteriophage λ holin S105, allele S105τ94 (internal G2H6G2 tag) (natural protein)”, for which the stoichiometry N came to 72.
